Test results from the RNAGym collection of RNA variant scans (doi:10.7554/elife.80360).

B1: CPEB3 Ribozyme (parent)
chain: GGGGGCCACAGCAGAAGCGUUCACGUCGCGGCCCCUGUCAGAUUCUGGUGAAUCUGCGAAUUCUGCUGU

Variants of: B1
Assay: self-cleavage, relative activity (ratio to wild type); higher = more cleavage; co-transcriptional

First: GGGGGCCACAGCAGAAGCGUUCACGUCGCGGCCCCGGUCAGAUGCUGGUGAAUCUGCGAAUUCUGCUGU
Second: GGGGGCCACAGCAGAAGCGUUCACGUCGCGGCCCCGGUCAGAUACUGGUGAAUCUGCGAAUUCUGCUGU
The self-cleavage of the first is lower: 0.219 for the first, 0.246 for the second.

Compared with GGGGGCCACAGCAGAAGCGUUCACGUCGCGGCCCCGGUCAGAUUCUGGUGAAUCUGCGAAUUCUGCUGA, GGGGGCCACAGCAGAAGCGUUCACGUCGCGGCCCCGGUCAGAUUCUGGCGAAUCUGCGAAUUCUGCUGU is lower in self-cleavage: 0.297 for the first, 0.146 for the second.

First: GGGGGCCACAGCAGAAGCGUUCACGUCGCGGCCCCGGUCAGAUUCUGCUGAAUCUGCGAAUUCUGCUGU
Second: GGGGGCCACAGCAGAAGCGUUCACGUCGCGGCCCCGGUCAGAUUCUGAUGAAUCUGCGAAUUCUGCUGU
The self-cleavage of the first is higher: 0.266 for the first, 0.236 for the second.

First: GGGGGCCACAGCAGAAGCGUUCACGUCGCGGCCCCGGUCAGAUUCUGGUGAAUCAGCGAAUUCUGCUGU
Second: GGGGGCCACAGCAGAAGCGUUCACGUCGCGGCCCCUAUCAGAUUCUGGUGAAUCUGCGAAUUCUGCUGU
The self-cleavage of the first is lower: 0.238 for the first, 0.32 for the second.

Compared with GGGGGCCACAGCAGAAGCGUUCACGUCGCGGCCCCGGUCAUAUUCUGGUGAAUCUGCGAAUUCUGCUGU, GGGGGCCACAGCAGAAGCGUUCACGUCGCGGCCCCGGUCACAUUCUGGUGAAUCUGCGAAUUCUGCUGU is lower in self-cleavage: 0.373 for the first, 0.278 for the second.

Compared with GGGGGCCACAGCAGAAGCGUUCACGUCGCGGCCCCGGUCAAAUUCUGGUGAAUCUGCGAAUUCUGCUGU, GGGGGCCACAGCAGAAGCGUUCACGUCGCGGCCCCGGUCAGAUUCUGGUGAAUCUGCGAAUUCCGCUGU is higher in self-cleavage: 0.144 for the first, 0.188 for the second.

Going from GGGGGCCACAGCAGAAGCGUUCACGUCGCGGCCCCGGUCAGAUUCUGGUGAAUCUGCGAAUUCGGCUGU to GGGGGCCACAGCAGAAGCGUUCACGUCGCGGCCCCGGUCAGAUUCUGGUGAAUCUGCCAAUUCUGCUGU, the self-cleavage rises from 0.195 to 0.277.

Compared with GGGGGCCACAGCAGAAGCGUUCACGUCGCGGCCCCGGUCAGAUUCUGGUGAAUCUGCAAAUUCUGCUGU, GGGGGCCACAGCAGAAGCGUUCACGUCGCGGCCCCGGUCAGAUUCUGGUGAAUCUGCGAAUUCUGCCGU is lower in self-cleavage: 0.24 for the first, 0.239 for the second.

Compared with GGGGGCCACAGCAGAAGCGUUCACGUCGCGGCCCCGGUCAGAUUCUGGUGAAUCUGCGAAUUCUGCAGU, GGGGGCCACAGCAGAAGCGUUCACGUCGCGGCCCCGGUCAGAUUCUGGUGAAUCUGCGAAAUCUGCUGU is higher in self-cleavage: 0.0785 for the first, 0.341 for the second.

Compared with GGGGGCCACAGCAGAAGCGUUCACGUCGCGGCCCCGGUCAGAUUCUGGUGAAUCUGCGAAUUCUGGUGU, GGGGGCCACAGCAGAAGCGUUCACGUCGCGGCCCCGGUCAGAUUCUGGUGAAUCUGCGAAUUCUGUUGU is higher in self-cleavage: 0.167 for the first, 0.22 for the second.

Going from GGGGGCCACAGCAGAAGCGUUCACGUCGCGGCCCCGGUCAGAUUCUGGUUAAUCUGCGAAUUCUGCUGU to GGGGGCCACAGCAGAAGCGUUCACGUCGCGGCCCCUAUCCGAUUCUGGUGAAUCUGCGAAUUCUGCUGU, the self-cleavage falls from 0.306 to 0.261.

Going from GGGGGCCACAGCAGAAGCGUUCACGUCGCGGCCCCGGUCAGAUUCUGGUGAAUCUGCGAAUUCUCCUGU to GGGGGCCACAGCAGAAGCGUUCACGUCGCGGCCCCGGUCAGAUUCUGGUGAAUCUGCGAAUUCUACUGU, the self-cleavage falls from 0.25 to 0.207.

Going from GGGGGCCACAGCAGAAGCGUUCACGUCGCGGCCCCGGUCAGAUUCCGGUGAAUCUGCGAAUUCUGCUGU to GGGGGCCACAGCAGAAGCGUUCACGUCGCGGCCCCGGUCAGAAUCUGGUGAAUCUGCGAAUUCUGCUGU, the self-cleavage rises from 0.21 to 0.26.

Going from GGGGGCCACAGCAGAAGCGUUCACGUCGCGGCCCCGGUCAGACUCUGGUGAAUCUGCGAAUUCUGCUGU to GGGGGCCACAGCAGAAGCGUUCACGUCGCGGCCCCGGUCAGAGUCUGGUGAAUCUGCGAAUUCUGCUGU, the self-cleavage falls from 0.268 to 0.231.

First: GGGGGCCACAGCAGAAGCGUUCACGUCGCGGCCCCGGUCAGAUUCUGGUGAAUCUUCGAAUUCUGCUGU
Second: GGGGGCCACAGCAGAAGCGUUCACGUCGCGGCCCCGGUCAGAUUCUGGUGAAUCUACGAAUUCUGCUGU
The self-cleavage of the first is lower: 0.19 for the first, 0.246 for the second.

Compared with GGGGGCCACAGCAGAAGCGUUCACGUCGCGGCCCCGGUCAGAUUCUGGUGAACCUGCGAAUUCUGCUGU, GGGGGCCACAGCAGAAGCGUUCACGUCGCGGCCCCGGCCAGAUUCUGGUGAAUCUGCGAAUUCUGCUGU is lower in self-cleavage: 0.267 for the first, 0.248 for the second.

Going from GGGGGCCACAGCAGAAGCGUUCACGUCGCGGCCCCGGGCAGAUUCUGGUGAAUCUGCGAAUUCUGCUGU to GGGGGCCACAGCAGAAGCGUUCACGUCGCGGCCCCGGUCAGAUUCUAGUGAAUCUGCGAAUUCUGCUGU, the self-cleavage rises from 0.2 to 0.252.

Compared with GGGGGCCACAGCAGAAGCGUUCACGUCGCGGCCCCGGUCAGAUUCUCGUGAAUCUGCGAAUUCUGCUGU, GGGGGCCACAGCAGAAGCGUUCACGUCGCGGCCCCGGUCAGAUUCUGGUGAAUCUGCGAAUCCUGCUGU is lower in self-cleavage: 0.293 for the first, 0.21 for the second.

Going from GGGGGCCACAGCAGAAGCGUUCACGUCGCGGCCCCGUUCAGAUUCUGGUGAAUCUGCGAAUUCUGCUGU to GGGGGCCACAGCAGAAGCGUUCACGUCGCGGCCCCGAUCAGAUUCUGGUGAAUCUGCGAAUUCUGCUGU, the self-cleavage falls from 0.199 to 0.198.

GGGGGCCACAGCAGAAGCGUUCACGUCGCGGCCCCGCUCAGAUUCUGGUGAAUCUGCGAAUUCUGCUGU showed a self-cleavage of 0.22.
